Experiment [1] deals with D25. In words: flow cytometry on cells (shotgun mutagenesis alanine scan, HEK293T). Particulars: read off a plot.
Experiment [2] has as its target Palivizumab. Described as above. Particulars: read off a plot.

On to “wildtype RSV F (RSV-A2) expressed on HEK-293T cells (from UniProt P03420) D385A”, for which the percent of parent came to 88 % WT in experiment [1] and 140 % WT in experiment [2].

Turning to “wildtype RSV F (RSV-A2) expressed on HEK-293T cells (from UniProt P03420) F387A”, the percent of parent turned out to be 74 % WT in experiment [1] and 150 % WT in experiment [2].

In the case of “wildtype RSV F (RSV-A2) expressed on HEK-293T cells (from UniProt P03420) G446A”, the percent of parent amounted to 90 % WT in experiment [1] and 70 % WT in experiment [2].

Turning to “wildtype RSV F (RSV-A2) expressed on HEK-293T cells (from UniProt P03420) K433A”, the results for the percent of parent in experiment [1] and in experiment [2] were 120 % WT and 150 % WT, respectively.

For the substance “wildtype RSV F (RSV-A2) expressed on HEK-293T cells (from UniProt P03420) K465A”, the percent of parent amounted to 100 % WT in experiment [1] and 140 % WT in experiment [2].

On to “wildtype RSV F (RSV-A2) expressed on HEK-293T cells (from UniProt P03420) N388A”, for which the percent of parent in experiment [1] worked out at 74 % WT; in experiment [2], 87 % WT.

“wildtype RSV F (RSV-A2) expressed on HEK-293T cells (from UniProt P03420) N426A”: the percent of parent in experiment [1] was found to be 230 % WT; in experiment [2], 290 % WT.

These data come from paper PMC4892554.
